# Source: IntAct's records for PubMed 18292230
# B1: E3 ubiquitin-protein ligase CHIP (Homo sapiens), Q9UNE7-1 (parent)
# chain: MKGKEEKEGGARLGAGGGSPEKSPSAQELKEQGNRLFVGRKYPEAAACYGRAITRNPLVAVYYTNRALCYLKMQQHEQALADCRRALELDGQSVKAHFFLGQCQLEMESYDEAIANLQRAYSLAKEQRLNFGDDIPSALRIAKKKRWNSIEERRIHQESELHSYLSRLIAAERERELEECQRNHEGDEDDSHVRAQQACIEAKHDKYMADMDELFSQVDEKRKKRDIPDYLCGKISFELMREPCITPSGITYDRKDIEEHLQRVGHFDPVTRSPLTQEQLIPNLAMKEVIDAFISENGWVEDY
# Variants of: B1
# Conditions: with akt1_human AKT1, P31749
# Chain of akt1_human AKT1, P31749 (P31749 whole entry): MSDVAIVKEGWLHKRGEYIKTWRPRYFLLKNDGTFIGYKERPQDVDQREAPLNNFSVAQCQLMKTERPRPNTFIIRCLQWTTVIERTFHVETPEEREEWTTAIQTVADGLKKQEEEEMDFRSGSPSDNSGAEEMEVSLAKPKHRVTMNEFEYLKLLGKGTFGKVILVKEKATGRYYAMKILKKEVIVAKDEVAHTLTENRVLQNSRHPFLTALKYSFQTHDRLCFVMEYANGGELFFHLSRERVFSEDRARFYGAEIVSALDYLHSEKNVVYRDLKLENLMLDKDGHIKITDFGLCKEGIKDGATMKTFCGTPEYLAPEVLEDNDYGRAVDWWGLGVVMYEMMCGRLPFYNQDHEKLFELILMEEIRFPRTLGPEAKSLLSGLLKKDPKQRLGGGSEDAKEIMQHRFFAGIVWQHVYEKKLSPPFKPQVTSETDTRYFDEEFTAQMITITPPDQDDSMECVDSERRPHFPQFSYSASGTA
row,Variant,effect of a mutation on the interaction
1,K30A,disrupting interaction
